Legend:
[1] = target: Notch1 antigen protein (amino acids 1-220 of human Notch1 with human Fc-tag or histidine-tag) (human) (UniProt P46531); test: Biacore, binding to Notch1 antigen
[2] = target: T1, Notch1 antigen protein (amino acids 1-220 of human Notch1 with human Fc-tag or histidine-tag) (human, UniProt P46531 19-220); test: ELISA of HEK 293 conditioned media on Notch1 antigen; heavy chain cotransfected with the murine 13M57 light chain
T1 construct: range 19-220; Made in insect cells with baculovirus; also called Notch1 antigen corresponding to EGF repeats 1-5; not shown: C-terminal human Fc-tag or histidine-tag
T1 sequence (looked up): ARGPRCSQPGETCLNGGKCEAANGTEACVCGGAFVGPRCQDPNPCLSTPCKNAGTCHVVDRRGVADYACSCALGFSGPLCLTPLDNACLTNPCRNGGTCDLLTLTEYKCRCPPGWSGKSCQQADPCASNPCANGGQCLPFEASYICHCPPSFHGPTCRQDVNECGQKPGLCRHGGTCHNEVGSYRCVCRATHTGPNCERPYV
Procedure: The functionality of each candidate variant humanized heavy and light chain was tested by cotransfection into mammalian cells. Each of the eleven candidate humanized 13M57 heavy chains described above was cotransfected with the murine 13M57 light chain cDNA into HEK 293 cells, and conditioned media was then assayed for Notch1 antigen binding activity by ELISA. […] This variant—“13M57H5”—contained, in additional to murine CDRs, murine residues at five framework positions, Kabat positions 44, 46, 49, 89, and 93 (FIG. 3). The 13M57H5 humanized heavy chain was then cotransfected with each of the eleven candidate humanized light chains into HEK293 cells, and conditioned media was again assayed for antigen binding by ELISA. […] To evaluate the importance of the individual murine residues in 13M57 L5 and 13M57 L6, a farther series of candidate variant light chains were synthesized that combined one or more of the murine residues at Kabat positions 42-45 and 89-90. These candidate variant light chains were then tested as described above.

[3] = target: T1, Notch1 antigen protein (amino acids …); test: Biacore, binding to Notch1 antigen
Description: The two best humanized 13M57 antibodies (13M57H5 L6 and 13M57H5 L21) were then further characterized. The humanized 13M57 antibodies were purified using protein A chromatography.

Row | Binder | Kd [3] [nM] | further results
1 | murine monoclonal antibody 13M57 (antibody, from another filing, V domains shown) VH: EVNLVESGGDLVQPGGSLRLSCAASGFTFSSYTMSWVRQTPEKRLEWVAYIDYGGDFTSYSDAIRGRFTISRDNAKNTLYLQMSSLKSEDTAIYYCSRRRYDAMDYWGQGTSVIVSS VL: DIQMTQSTSSLSASLGDRVTVSCSASQAISNYLNWYQQKPDGTLKLLIYYTTNLHSGVPSRFSGSGSGTDYSLTISNLEPEDIATYYCQQYSKFPWTFGGGTKLEIKR |  | Kd [1]: 0.05 nM
2 | 13M57H5 humanized heavy chain cotransfected with the murine 13M57 light chain (antibody, human IgG2, V domains shown, Heavy chain fused to the human IgG2 constant region; tested as conditioned medium from HEK 293 cells) VH: EVQLVESGGGLVQPGGSLRLSCAASGFTFSSYTMSWVRQAPGKRLEWVAYIDYGGDFTSYSDAIRGRFTISRDNAKNTLYLQMNSLRAEDTAIYYCSRRRYDAMDYWGQGTLVTVSS VL: DIQMTQSTSSLSASLGDRVTVSCSASQAISNYLNWYQQKPDGTLKLLIYYTTNLHSGVPSRFSGSGSGTDYSLTISNLEPEDIATYYCQQYSKFPWTFGGGTKLEIK |  | binding result [2]: binds
3 | humanized 13M57H5L6 antibody (antibody, human IgG2, V domains shown, Variant heavy chains were fused in-frame to the human IgG2 constant region; also called 13M57 L6H5; humanized L6H5 13M57) VH: EVQLVESGGGLVQPGGSLRLSCAASGFTFSSYTMSWVRQAPGKRLEWVAYIDYGGDFTSYSDAIRGRFTISRDNAKNTLYLQMNSLRAEDTAIYYCSRRRYDAMDYWGQGTLVTVSS VL: DIQMTQSPSSLSASVGDRVTITCSASQAISNYLNWYQQKPGKAPKLLIYYTTNLHSGVPSRFSGSGSGTDYSFTISSLQPEDIATYYCQQYSKFPWTFGGGTKVEIKR | ~0.08 | 
4 | humanized 13M57H5L21 antibody (antibody, human IgG2, V domains shown, Human IgG2 heavy chain constant region; also called 13M57 L21H5; ATCC PTA-8424) VH: EVQLVESGGGLVQPGGSLRLSCAASGFTFSSYTMSWVRQAPGKRLEWVAYIDYGGDFTSYSDAIRGRFTISRDNAKNTLYLQMNSLRAEDTAIYYCSRRRYDAMDYWGQGTLVTVSS VL: DIQMTQSPSSLSASVGDRVTITCSASQAISNYLNWYQQKPDGTLKLLIYYTTNLHSGVPSRFSGSGSGTDYSFTISSLQPEDIATYYCQQYSKFPWTFGGGTKVEIKR | ~0.1 | 

From patent US20090208491A1 (published 2009)
